Measurements: US20170240645A1 (Genentech, published 2017)

Columns and labels:
[1] = molecular target: T1, full-length human PMEL17 with an N-terminal gD tag (human, UniProt P40967 25-661); experiment: immunoblot of cell lysates
T1 construct: it is left out here; also called full-length PMEL17; N-terminal gD tagged PMEL17 (human)
T1 sequence: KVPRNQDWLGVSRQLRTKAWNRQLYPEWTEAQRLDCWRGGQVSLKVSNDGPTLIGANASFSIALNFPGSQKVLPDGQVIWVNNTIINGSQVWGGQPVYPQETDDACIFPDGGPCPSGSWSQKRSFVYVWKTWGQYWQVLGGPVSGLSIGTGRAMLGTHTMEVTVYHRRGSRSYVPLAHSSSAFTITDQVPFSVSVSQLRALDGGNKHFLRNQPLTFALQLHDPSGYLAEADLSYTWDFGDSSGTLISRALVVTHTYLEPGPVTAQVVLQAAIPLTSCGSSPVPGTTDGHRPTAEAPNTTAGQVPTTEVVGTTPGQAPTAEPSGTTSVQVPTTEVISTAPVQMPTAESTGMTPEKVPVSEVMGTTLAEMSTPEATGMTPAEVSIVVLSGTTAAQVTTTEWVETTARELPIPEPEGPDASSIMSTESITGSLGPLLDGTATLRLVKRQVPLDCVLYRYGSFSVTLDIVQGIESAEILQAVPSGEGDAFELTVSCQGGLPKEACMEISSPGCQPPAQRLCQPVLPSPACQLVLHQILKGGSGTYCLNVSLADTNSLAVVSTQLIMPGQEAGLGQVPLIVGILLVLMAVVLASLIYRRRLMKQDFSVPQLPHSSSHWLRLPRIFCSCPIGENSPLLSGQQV

human PMEL17 = molecular target: T2, human PMEL17 (human, UniProt P40967 25-661); experiment: FACS on live cells, hybridoma supernatant
T2 construct: Untagged PMEL17 as it occurs on melanoma cell lines, normal human melanocytes, PC3 cells stably expressing PMEL17 cDNA, and in human tissue sections; also called Melanocyte protein PMEL17
T2 sequence: T1 sequence
Source text: After 10-14 days, the supernatants were harvested and screened by ELISA and FACS. For FACS analysis, melanoma cell lines SK-MEL-23 (provided by Paul Robbins, Center for Cancer Research, Tumor Immunology Section), 1300mel (provided by Paul Robbins, Center for Cancer Research, Tumor Immunology Section), SKMELS (ATCC HTB-70), and UACC257 (National Cancer Institute), normal melanocytes (Invitrogen, Carlsbad, Calif.), and the prostate cancer cell line PC3 stably expressing human PMEL17 were contacted with antibody. One antibody from the PMEL17-immunized mice, designated 17A9, reacted strongly by fluorescent activated cell sorting (FACS) with live melanoma cells, normal human melanocytes and a PC3 cell line stably expressing PMEL17 cDNA, but not the parental PC3 cell line. Another antibody, 77E6, obtained from the DNA-immunized mice, was also positive by FACS, although 77E6 reacted with live cell lines expressing PMEL17 somewhat inconsistently and more weakly than 17A9.

[2] = molecular target: T3, cynomolgus monkey PMEL17 with an N-terminal gD tag (cynomolgus monkey, UniProt P40967 25-661 (human entry)); experiment: FACS, 293S cells stably transfected with gD tagged PMEL17, 10 µg/ml 17A9
T3 construct: On stably transfected 293S cells; also called N-terminal gD tagged PMEL17 (cynomolgus monkey)
T3 chain: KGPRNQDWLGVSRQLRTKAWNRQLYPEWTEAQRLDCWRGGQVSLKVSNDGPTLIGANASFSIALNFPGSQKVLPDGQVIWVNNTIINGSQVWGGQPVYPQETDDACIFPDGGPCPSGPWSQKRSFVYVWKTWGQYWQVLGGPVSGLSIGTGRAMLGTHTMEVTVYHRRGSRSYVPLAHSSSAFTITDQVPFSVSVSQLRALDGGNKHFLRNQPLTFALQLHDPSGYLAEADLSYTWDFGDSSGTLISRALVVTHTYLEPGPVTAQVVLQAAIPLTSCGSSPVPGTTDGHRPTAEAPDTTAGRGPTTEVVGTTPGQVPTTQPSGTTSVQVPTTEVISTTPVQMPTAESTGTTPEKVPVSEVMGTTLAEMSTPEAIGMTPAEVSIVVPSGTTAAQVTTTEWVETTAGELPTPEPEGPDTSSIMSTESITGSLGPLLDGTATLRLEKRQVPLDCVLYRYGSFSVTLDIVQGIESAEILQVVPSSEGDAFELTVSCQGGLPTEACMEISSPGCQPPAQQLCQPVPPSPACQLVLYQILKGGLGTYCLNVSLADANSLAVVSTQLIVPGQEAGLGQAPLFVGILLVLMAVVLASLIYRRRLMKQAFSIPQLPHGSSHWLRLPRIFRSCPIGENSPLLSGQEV
Procedure: (§1) Antibody 17A9 was tested to determine if it cross-reacts with PMEL17 from species other than human. […] All of the sequences include the signal sequence except for the cynomolgus monkey PMEL17. Residues that are identical among all four species are indicated by asterisks (*). In the region where the rat sequence has a deletion, residues that are identical among the remaining three species are indicated by a plus (+). Binding to each species of PMEL17 was determined by FACS analysis using 293S cells stably transfected with an N-terminal gD tagged PMEL17 (human, cynomolgus monkey, rat, or mouse PMEL17); stained with 10 μg/ml 17A9 antibody; and detected with R-Phycoerythrin conjugated goat anti-mouse antibody.

[3] = molecular target: T4, mouse PMEL17 with an N-terminal gD tag (mouse, UniProt Q60696 26-626); experiment: as above
T4 construct: On stably transfected 293S cells; also called N-terminal gD tagged PMEL17 (mouse)
T4 sequence: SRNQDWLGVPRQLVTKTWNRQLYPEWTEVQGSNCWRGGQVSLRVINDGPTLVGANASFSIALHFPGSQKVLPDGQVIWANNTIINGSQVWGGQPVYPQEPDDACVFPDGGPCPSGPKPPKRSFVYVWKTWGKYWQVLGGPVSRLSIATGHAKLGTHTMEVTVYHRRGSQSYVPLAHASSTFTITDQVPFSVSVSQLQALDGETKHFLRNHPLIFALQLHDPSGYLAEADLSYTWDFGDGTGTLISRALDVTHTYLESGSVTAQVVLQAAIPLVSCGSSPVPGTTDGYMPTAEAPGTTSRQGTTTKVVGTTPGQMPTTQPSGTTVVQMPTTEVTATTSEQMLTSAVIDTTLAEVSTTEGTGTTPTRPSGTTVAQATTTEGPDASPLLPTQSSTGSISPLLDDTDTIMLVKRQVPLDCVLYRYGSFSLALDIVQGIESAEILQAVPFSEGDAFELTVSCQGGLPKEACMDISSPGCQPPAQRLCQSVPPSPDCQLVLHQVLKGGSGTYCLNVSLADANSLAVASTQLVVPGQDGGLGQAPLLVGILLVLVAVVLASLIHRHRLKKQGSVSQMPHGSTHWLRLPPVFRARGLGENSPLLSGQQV
Procedure: as §1

Measured: binding result

B1: 17A9 (antibody, V domains shown)
VH: EVQLQQSGPELVKPGASMKISCKSSGYSFTRYTMNWVKQSHGKNLEWIGVINPYNGGTVYNQKFKGKATLTVDKSSSTAYMELLSLTSEDSAVYYCARTDYDGYAMDYWGQGTSVTVSS
VL: DVQITQSPSYLAASPGETITINCRATKSISKYLAWYQEQPGKTNNLLIYSGSTLQSGIPSRFSGSGSGTDFTLTISSLEPEDFAMYYCQQHNEYPYTFGSGTKLEIK
notes: Mouse monoclonal antibody from a hybridoma (mice immunized with PMEL17 ECD-Fc); also called anti-PMEL17 antibody 17A9
binds: [1] | human PMEL17 | [2] | [3]
